Data: US11789012B2, “Cell death biomarker” (UCL Business PLC, priority 2016, dated 2023)

Columns and labels:
[1] = tested on: MDA MB-231; assay: rTRAIL response after BAP1 knockdown in MDA MB-231; type: cell-based; conditions: MDA MB-231 breast cancer cell line, BAP1 shRNA
Text: (§1) FIG. 8A is a graph showing the effect of rTRAIL on the viability of various cancer cell lines. Bladder (RT4) and Breast (HCC1187) cancer cell lines with nonsense mutations in BAP1 show sensitivity to rTRAIL while renal cell cancer cell lines (769P & RCC10RGB) with missense mutation and wild-type renal (BB65RCC) and bladder cancer (SW1710) cell lines are resistant to TRAIL.
The deubiquitinase BAP1 is frequently mutated in pleural mesothelioma (36%), uveal melanoma (47%) and intrahepatic cholangiocarcinomas (25%) as previously noted. To determine whether additional BAP1 mutant tumours occur that may also be amenable to this therapeutic approach, the inventors extended this analysis to a cohort of 5180 tumour samples in 20 cancer types using variant data from The Cancer Genome Atlas (TCGA). Truncating BAP1 mutations were also observed in a diverse range of cancer types, with frequencies of up to 6% (see FIGS. 1b, and c) Carbone, M. et al, Nature Reviews Cancer 13, 153-159 (March 2013). When the inventors extended their analysis to a panel of 1001 cancer cell lines that had previously been submitted for whole exome and copy number analysis, they identified 17 cell lines harbouring truncating mutations in BAP1. These included clear cell kidney cancer, bladder cancer and breast cancer cell lines. […]

[2] = tested on: HCC1187; assay: rTRAIL viability, breast cancer cell line HCC1187; type: cell-based; conditions: nonsense mutation in BAP1
Text: as §1

[3] = tested on: RCC10RGB; assay: rTRAIL viability, renal cell cancer cell line RCC10RGB; type: cell-based; conditions: BAP1 missense mutation
Text: as §1

[4] = tested on: H2461; assay: rTRAIL response, viability assay, H2461; type: cell-based, Human; conditions: BAP1 Deletion - Frameshift, heterozygous
Description: (§2) Manual “single dose” combination screening was undertaken using 96 well formats. Cells were plated on day 1 in previously optimized seeding densities in 180 μl if media. On day 2 20 μl of a 10× concentration of […] was added. Cells were then allowed to grow for 72 hrs or 6 days and fixed at the end of the assay. Drug wells were compared to DMSO treated control wells.
(§3) Single agent high throughput 5 point viability screening was undertaken in 384 well formats using robotic liquid handling with fixing with 4% paraformaldehyde and staining for viability with Syto60 nucleic acid dye (Invitrogen) (see below). Single agent dose response curves were derived for each library of 85-95 drugs according to the experiment used, and log IC50 or area under the curve (AUC) metrics were derived for each library compound in each cell line according to a previously derived formula [18].
(§4) Adherent cell lines were seeded 24 hours before drugging. Cells were trypsinised and counted before seeding at the optimal density for the size of well (96 or 384) and duration of assay. 72 hr after drug treatment cells were fixed with 4% paraformaldehyde for 30 minutes. […] Quantification of fluorescent signal was achieved using excitation/emission wavelength of 630/695 […].

[5] = tested on: H2803; assay: rTRAIL response, viability assay, H2803; type: cell-based, Human; conditions: BAP1 Wild-type
Description: as §2, §3, §4

[6] = tested on: BAP1 mutant cell lines (H2722, H2461, H28 and H2731); assay: Annexin V/DAPI cell death assay, BAP1 mutant cell lines; type: cell-based, Human; conditions: TRAIL 0-1000 ng/ml, 24 hours
Description: MPM cell lines were treated with a dose range from 0.5 ng/ml to 100 ng/ml and cell viability was measured using Syto-60 assay. Based on their cell viability, the cell lines were classified into resistant (red), partially sensitive (orange) and sensitive (green). Cell lines were western blotted to probe the expression of BAP1 protein expression. […] Three BAP1 wild-type cell lines (MPP-89, H2869 & H2818) and four BAP1 mutant cell lines (H2722, H2461, H28 and H2731) were treated with TRAIL (0-1000 ng/ml) for 24 hours and cell death quantified using an Annexin V/DAPI cell death assay.
Adherent mesothelioma cell lines were plated in a 96 well plate at approximately 10000 cells per well. Cells were plated and given 1 day to adhere at which time drug was added. After 48 hrs media, including floating cells, was collected from each well. The remaining adherent cells were washed with PBS and mobilised with 0.05% trypsin in EDTA. All cells were collected into tubes containing the previously removed media and pelleted by centrifugation (300 g, 5 minutes). […] Annexin V−/DAPI− cells were judged to be viable, AnnexinV+/DAPI− cells were considered to be undergoing apoptosis (early apoptotic phase), and Annexin V+/DAPI+ cells were considered late apoptotic or necrotic, and recorded as dead.

B1: rTRAIL: recombinant protein that activates the TRAIL pathway by binding to TRAIL-R1 (DR 4) and TRAIL-R2 (DR 5) (protein, UniProt P50591 1-281, looked up)
Tumor necrosis factor ligand …: MAMMEVQGGPSLGQTCVLIVIFTVLLQSLCVAVTYVYFTNELKQMQDKYSKSGIACFLKEDDSYWDPNDEESMNSPCWQVKWQLRQLVRKMILRTSEETISTVQEKQQNISPLVRERGPQRVAAHITGTRGRSNTLSSPNSKNEKALGRKINSWESSRSGHSFLSNLHLRNGELVIHEKGFYYIYSQTYFRFQEEIKENTKNDKQMVQYIYKYTSYPDPILLMKSARNSCWSKDAEYGLYSIYQGGIFELKENDRIFVSVTNEHLIDMDHEASFFGAFLVG
sensitivity to rTRAIL after knockdown of BAP1 [1]: increases sensitivity
response to rTRAIL (viability) [2]: sensitivity
response to TRAIL (viability) [3]: resistant
rTRAIL response [4]: Sensitive
rTRAIL response [5]: Resistant
fraction of cells stained with Annexin V [6]: increased fraction of cells stained with the apoptotic marker Annexin V
